Assays:
[1] = biological target: T1, Boc-Tyr-Thr(α-Man)-Val-OMe (Compound 10)
T1 chain: YTV

[2] = biological target: T2, Cbz-Thr(α-Man)-Val-OMe (Compound 7)
T2 chain: TV

[3] = biological target: T3, Thr(α-Man)-Val-OMe (Compound 8)
T3 chain: TV

[4] = biological target: T4, Cbz-Thr(α-Man)-Val-Gly-Ala-NH2 (Compound 9)
T4 chain: TVGA

[5] = biological target: T5, Cbz-Thr(αManα1,2Man)-Val-OMe (Compound 11)
T5 chain: TV

B1: recombinant α1,2-mannosyltransferase (soluble catalytic domain, protein sequence 31-442 of α1,2-ManT from S. cerevisiae, expressed from pManflag20 in the E. … (protein)
chain: RTQQYIPSSISAAFDFTSGSISPEQQVISEENDAKKLEQSALNSEASEDSEAMDEESKALKAAAEKADAPIDTKTTMDYITPSFANKAGKPKACYVTLVRNKELKGLLSSIKYVENKINKKFPYPWVFLNDEPFTEEFKEAVTKAVSSEVKFGILPKEHWSYPEWINQTKAAEIRADAATKYIYGGSESYRHMCRYQSGFFWRHELLEEYDWYWRVEPDIKLYCDINYDVFKWMQENEKVYGFTVSIHEYEVTIPTLWQTSMDFIKKNPEYLDENNLMSFLSNDNGKTYNLCHFWSNFEIANLNLWRSPAYREYFDTLDHQGGFFYERWGDAPVHSIAAALFLPKDKIHYFSDIGYHHPPYDNCPLDKEVYNSNNCECDQGNDFTFQGYSCGKEYYDAQGLVKPKNWKKFRE
[1]
  Km (acceptor), mannosyl transfer reaction: 0.7 mM
  Km, fold lower than that of Compound 7: This value is 10 times less than that of Compound 7
  Km, fold lower than that of ManαOMe (Compound 1): 80 times smaller than that of ManαOMe (Compound 1)
  Vrelative (ratio of Vmax, ManαOMe = 1.0), mannosyl transfer from GDP-Man to acceptor: 0.35
[2]
  Km (acceptor), mannosyl transfer reaction: 7.8 mM
  Vrelative (ratio of Vmax, ManαOMe = 1.0), mannosyl transfer from GDP-Man to acceptor: 0.71
[3]
  Vrelative (ratio of Vmax, ManαOMe = 1.0), mannosyl transfer from GDP-Man to acceptor: 0.68
[4]
  Vrelative (ratio of Vmax, ManαOMe = 1.0), mannosyl transfer from GDP-Man to acceptor: 0.55
[5]
  Km (acceptor), mannosyl transfer reaction: 26 mM
  Vrelative (ratio of Vmax, ManαOMe = 1.0), mannosyl transfer from GDP-Man to acceptor: 0.17

— patent US20030119090
